Source: the RNAGym collection of RNA variant scans (doi:10.7554/elife.80360)

B1: HDV Ribozyme (parent)
chain: GGCCGGCAUGGUCCCAGCCUCCUCGCUGGCGCCGGCUGGGCAACAUUCCGAGGGGACCGUCCCCUCGGUAAUGGCGAAUGGGACCCA

Variants of: B1
Assay: self-cleavage, relative activity (ratio to wild type); higher = more cleavage; co-transcriptional

Row | Variant | self-cleavage
1 | U20G A83U | 0.0554
2 | U20G C63A | 0.214
3 | U20G C63U | 0.297
4 | U20C A78C | 0.0449
5 | U20C A78G | 0.0755
6 | U20C G25C | 0.227
7 | U20C G25U | 0.0415
8 | C21A C75A | 0
9 | U20G A87C | 0.282
10 | U20G A87G | 0.282
11 | C21A G81C | 0.0923
12 | C21A C32U | 0.0978
13 | C21A C32A | 0.17
14 | U20G C48A | 0.0723
15 | U20G C48G | 0.222
16 | U20G C48U | 0.237
17 | C21A C86G | 0.111
18 | C21A C86U | 0.0308
19 | C21A C86A | 0.0563
20 | C21G C41A | 0.0573
21 | C21A C22G | 0.108
22 | C21A C22A | 0.0898
23 | U20G A43U | 0.107
24 | U20G A43C | 0.256

Row | Variant | self-cleavage
25 | U20G C44A | 0.262
26 | U20G G52C | 0.256
27 | U20G G52A | 0.499
28 | U20C C75G | 0
29 | U20C C75U | 0
30 | U20G U23G | 0.185
31 | U20G G82U | 0.104
32 | C21A C84A | 0
33 | U20G C57U | 0.302
34 | U20G C57G | 0.208
35 | U20G C57A | 0.111
36 | U20G C32U | 0.0519
37 | U20G C32A | 0
38 | U20C C33U | 0.0536
39 | U20C C33A | 0.0665
40 | C21A U47A | 0.0462
41 | U20C U23G | 0
42 | U20C U23C | 0.0723
43 | U20C C57U | 0.306
44 | U20C C57A | 0.0449
45 | C21A C24A | 0
46 | C21A C24G | 0
47 | C21A C24U | 0.0739
48 | U20C G28C | 0.0755

Row | Variant | self-cleavage
49 | U20G G81U | 0
50 | U20G G81A | 0.108
51 | U20G C86G | 0.287
52 | U20G C86A | 0.237
53 | U20C G31A | 0.0415
54 | C21A G73C | 0.0678
55 | U20G G55C | 0.0978
56 | U20G G55A | 0.356
57 | U20G | 0.205
58 | U20G G67A | 0.156
59 | U20G G67U | 0.467
60 | U20C A43G | 0.0978
61 | U20C A43C | 0.178
62 | U20C A43U | 0.0378
63 | U20G U27C | 0
64 | U20G U27A | 0.266
65 | U20G U27G | 0.332
66 | U20G C26A | 0.32
67 | U20G C26G | 0.196
68 | U20C U60A | 0.115
69 | U20C U60C | 0.0978
70 | U20C C84U | 0.111
71 | U20C G55U | 0.199
72 | U20C C21U | 0.0339

Row | Variant | self-cleavage
73 | U20C U72G | 0.0723
74 | C21G A45U | 0.0405
75 | C21G A45C | 0.18
76 | U20G G39U | 0.0369
77 | U20G G39C | 0.175
78 | U20G G39A | 0.0396
79 | C21A U60G | 0.138
80 | C21A G39A | 0.0277
81 | C21A G39C | 0.113
82 | C21G A83U | 0.0875
83 | C21G C44G | 0.141
84 | U20C C44G | 0.0692
85 | U20C C44U | 0
86 | U20C G39U | 0.0386
87 | U20C C26A | 0.104
88 | U20C C26U | 0.192
89 | U20G C36G | 0.151
90 | U20G C36U | 0.155
91 | U20G G53C | 0.262
92 | C21G C24A | 0.0437
93 | C21G C24U | 0
94 | U20G C62G | 0.0755
95 | U20C A87U | 0.189
96 | U20C A87C | 0.254

Row | Variant | self-cleavage
97 | U20G G34C | 0.138
98 | U20G G34U | 0.0519
99 | C21A G31U | 0.142
100 | C21A G31C | 0.0817
101 | U20C G82A | 0.0462
102 | U20C G82U | 0.0449
103 | U20G U46G | 0
104 | C21G C32G | 0.19
105 | C21G C32A | 0.0415
106 | C21A C62U | 0.0519
107 | C21A C62G | 0.138
108 | C21A C26G | 0.266
109 | C21A C26A | 0.0739
110 | C21A A56G | 0.109
111 | C21A A56C | 0.0898
112 | C21A C63A | 0.0314
113 | C21A C63U | 0.0462
114 | C21A G82U | 0.0297
115 | C21A G82A | 0.0594
116 | C21A G82C | 0.104
117 | U20C G40C | 0.0396
118 | U20C G40A | 0.0941
119 | U20C G35A | 0.101
120 | U20C G35C | 0

Row | Variant | self-cleavage
121 | C21A A45U | 0.0923
122 | U20C A71G | 0.0978
123 | U20C A71U | 0.0898
124 | C21A U23G | 0.125
125 | C21A U23C | 0.0755
126 | U20G C30U | 0
127 | U20G C30G | 0.0554
128 | C21G C22A | 0.0396
129 | C21G C22U | 0.0519
130 | C21G C22G | 0
131 | C21A G38U | 0.0665
132 | U20C G81C | 0
133 | U20C G81A | 0
134 | U20C U69A | 0
135 | U20C U69C | 0.208
136 | C21A A51C | 0.175
137 | C21A A51G | 0.0326
138 | C21A A51U | 0.0369
139 | U20C U65C | 0.401
140 | U20C U65G | 0.145
141 | C21A G52C | 0.125
142 | C21A G52U | 0.107
143 | C21A U72C | 0.101
144 | U20G G40A | 0.374

Row | Variant | self-cleavage
145 | C21G A78G | 0.135
146 | C21G A78C | 0.0462
147 | U20G C24G | 0.151
148 | U20G C24U | 0
149 | U20G C24A | 0.17
150 | C21A A71G | 0.0573
151 | C21A A71U | 0.106
152 | U20C C36A | 0
153 | C21A G67C | 0.137
154 | C21A G67U | 0.04
155 | U20G G38A | 0.0573
156 | U20G G38C | 0.0489
157 | U20G A70C | 0.217
158 | C21A C49G | 0.102
159 | C21A G40U | 0.134
160 | U20C G76C | 0.0773
161 | C21A A77G | 0.0678
162 | U20G U79A | 0.175
163 | U20G U79C | 0.0773
164 | U20G U79G | 0.208
165 | C21A U69C | 0.0426
166 | U20C G74A | 0.125
167 | U20C G50U | 0.163
